Data published in patent US7919587 (HYDROGENE LUND, dated 2011).

Target: the molecule itself
Assay: X-ray crystal structure, homotetramer
Method: Molecular replacement was carried out using the program MOLREP from the CCCP4i-program suite with the coordinates of bovine AQP1 (PDB entry 1J4N) (SEQ ID NO: 38) as the model. Using two copies of the model in the molecular replacement search, a clear solution with a correlation coefficient and R-factor of 34.3% and 53.1% respectively was found. The crystal packing was checked using the program O (30) and there were no overlaps between molecules. Automated model building was carried out using ARP/WARP (31) and the resulting model was docked to the correct sequence using GUISIDE2. The calculated electron density map at this stage was already of very good quality. Water molecules were picked using ARP/WARP. The model was subjected to multiple rounds of refinement in REFMAC5 (29), NCSREF (29) and CNS (32) with manual rebuilding in O between each round. During refinement, NCS restraints between the two molecules in the asymmetric unit (molecule A and B) were used. […] The R-factor and Rfree are 18.1% and 20.8% respectively. The quality of the structure was checked in PROCHECK (33).

B1: SoPIP2;1, plasma membrane aquaporin of spinach (other)
chain: MSKEVSEEAQAHQHGKDYVDPPPAPFFDLGELKLWSFWRAAIAEFIATLLFLYITVATVIGHSKETVVCGSVGLLGIAWAFGGMIFVLVYCTAGISGGHINPAVTFGLFLARKVSLLRALVYMIAQCLGAICGVGLVKAFMKGPYNQFGGGANSVALGYNKGTALGAEIIGTFVLVYTVFSATDPKRSARDSHVPILAPLPIGFAVFMVHLATIPITGTGINPARSFGAAVIFNSNKVWDDQWIFWVGPFIGAAVAAAYHQYVLRAAAIKALGSFRSNPTN
notes: also called PM28A; spinach aquaporin
binding result: binds
